The source of these data is patent US20250027068.

Positions count from the first letter of the chain named.

B1: PRT-688 (protein)
chain: MQITSVWTKGVTPLTMDDFTINNEDVIHAPYVANQGWYDITKTFNGKDNLLCGAATAGNMLHWWFDQNKEEIERYLKKHPEKQKIIFNNQELFDLKEAINTKDSQTDSKLFNYFRDKAFPNLSARQLGVMPDLVLDMFINGYYLNVFKTQSTDVNRPYDTKDKRGGIFDHVFTRGDQSTLLTARHDLKNKTLKEISDIIKQELTEGKALALSHTYANVSISHVINLWGADFNAEGNLEAIYVTDSDANASIGMKKYYVGVNSHGKVAISAKKIEGENIGAQVLGLFTLSSGKDIWQKLSLEHHHHHH
B2: PRT-498 (protein)
chain: MVTSVWTKGVTPPTDFRKIVDGNIAYYHAPYKAGQGWYDITKAFDGGDDLLCGAATAGNMLHWWFDQNKEYIEAYLKKHPEKQKIMFGDQELLDVRKAINTKGSQKNSELFNYFRDKAFPNLSARRLGVMPDLVLDMFINGYYLNVTKTQTTDVNRTYQEKDKRGGIFDAVFTRGDQSKLLTSRHDLKNKGLKEISDLIKQELTEGKALGLSHTYANVRINHVINLWGADFDSDGNLKAIYVTDSDSNASIGMKKYFVGVNSAGKVAISAKEIKEDNIGAQVLGLFTLSTGQDIWNQTNLEHHHHHH
B3: PRT-667 (protein)
chain: MQITSVWTKGVTPLTPEQFRYNNEDVFHAPYLAHQGWYDITKAFNGKDNLLCGAATAGNMLHWWFDQNKEEIEAYLKKHPEKQKIIFNNQELFDLRKAINTKDSQTNSQLFNYFRDKAFPNLSARQLGVMPDLVLDMFINGYYLNLNKTQSTDVNRPYQDKDKRGGIFDHVFTRGDQTTLLTARHDLKNKTLNDISQLIKQELQEGKALALSHTYANVSISHVINLWGADFNAEGNLEAIYVTDSDSDASIGMKKYFVGKNASGHVAISAKKIEGENIGAQVLGLFTLSSGKEIWQKLSLEHHHHHH
B4: PRT-515 (protein)
chain: MITSVWTKGVTPPTDFIKGEDVFHAPYKAGQGWYDITKAFDGGDDLLCGAATAGNMLHWWFDQNKEEIEAYLKKHPEKQKIMFGDQELLDVRKVINTKDSQTNSALFNYFKDKAFPNLSARRLGVMPDLVLDMFINGYYLNVYKTQTTDVNRQEQTKDRRGGIFDAVFGRGDQTKLLTERHDLKNKTLNEISQLIKQELTEGKALGLSHTYANVRINHVINLWGADFDAEGNLEAIYVTDSDSNASIGMKKYFVGVNSAGKVAISAKEIKEDNIGAQVLGLFTLSTGQKIWNKTNLEHHHHHH
B5: PRT-470 (protein)
chain: MVTSVWTKGVTPPTDFIYGEDVLHAPYKAGQGWYDITKTFNGKDDLLCGAATAGNMLHWWFDQNKEQIENYLKKHPEKQKINFNGEQMFDVKEAIDTKDSQLDSKLFEYFKEKAFPYLSTKHLGVFPDHVIDMFINGYRLSLTNHGPTPVKRGSKDPRGGIFDAVFTRGDQSKLLTNRHDFKEKTLKEISDLIKQELTEGKALGISHTYANVRINHVINLWGADFDAEGNLEAIYVTDSDSNASIGMKKYFVGVNSNGKVAISAKEIEEDNIGAQVLGLFTLSTGQDIWNQTNLEHHHHHH
B6: PRT-492 (protein)
chain: MVTSVWTKGVTPPTDFRKIVDGNIAYYHAPYKAGQGWYDITKAFDGGDNLLCGAATAGNMLHWWFDQNKEQIENYLKKHPEKQKIIFNNQELFDLKAAIDTKDSQTNSELFNYFKEKAFPYLSTKHLGVFPDHVIDMFINGYRLSLTNHGPTPVKRGSKDKRGGIFDAVFTRGVQSKLLTNRHDLKNKTLKEISDLIKQELTEGKALGISHTYANVRINHVINLWGADFDAEGNLEAIYVTDSDTNASIGMKKYFVGVNSNGKVAISAKEIEEDNIGAQVLGLFTLSTGQDIWNQTNLEHHHHHH
B7: PRT-501 (protein)
chain: MVTSVWTKGVTPPADFTQGEDVFHAPYVANQGWYDITKTFNGKDDLLCGAATAGNMLHWWFDQNKEYIEAYLKKHPEKQKIMFGDQELLDVRKAINTKGSQKNSELFNYFRDKAFPNLSARRLGVMPDLVLDMFINGYYLNVTKTQTTDVNRTYQEKDKRGGIFDAVFTRGDQSKLLTSRHDLKNKGLKEISDLIKQELTEGKALGLSHTYANVRINHVINLWGADFDSDGNLKAIYVTDSDSNASIGMKKYFVGVNSAGKVAISAKEIKEDNIGAQVLGLFTLSTGQDIWNQTNLEHHHHHH
B8: PRT-450 (protein)
chain: MVTSVWTKGVTPPTDFRKIVDGNIAYYHAPYKAGQGWYDITKAFDGGDDLLCGAATAGNMLHWWFDQNKDQIEAYLKEHPEKQKINFNGEQMFDVKEAIDTKDDQTNSELFNYFKEKAFPYLSTKHLGVFPDHVLDMFINGYRLSLTNHGPTPVKEGSKDPRGGIFDAVFTRGDQSKLLTSRHDLKNKTLKEISDLIKQELTEGKALALSHTYANVRINHVINLWGADFDSNGNLEAIYVTDSDSNASIGMKKYFVGVNSAGKVAISAKEIEDDNIGAQVLGLFTLSTGQDIWNQTNLEHHHHHH
B9: PRT-462 (protein)
chain: B8 chain with A74R, D104S, A208G, N232E, E236K, E272K, D273E
B10: PRT-485 (protein)
chain: MVTSVWTKGVTPPANFTQGEDVFHAPYKANQGWYDITKTFNGKDNLLCGAATAGNMLHWWFDQNKDQIEAYLKEHPEKQKIIFNNQELFDLKAAIDTKDDQTNSKLFEYFKEKAFPYLSTKHLGVFPDHVLDMFINGYRLSLTNHGPTPVKEGSKDKRGGIFDAVFTRGVQSKLLTSRHDLKNKTLKEISDLIKQELTEGKALALSHTYANVRINHVINLWGADFDSNGNLEAIYVTDSDTNASIGMKKYFVGVNSAGKVAISAKEIEDDNIGAQVLGLFTLSTGQDIWNQTNLEHHHHHH
B11: PRT-489 (protein)
chain: B10 chain with K28V, A70R, D100S, N103D, A204G, N228E, E232K, E268K, D269E
B12: PRT-511 (protein)
chain: MITSVWTKGVTPPAKFRKIVDGNIAYYHAPYVANQGWYDITKTFNGKDDLLCGAATAGNMLHWWFDQNKEEIEAYLKKHPEKQKIMFGDQELLDVRKVINTKDSQTNSALFNYFKDKAFPNLSARRLGVMPDLVLDMFINGYYLNVYKTQTTDVNRTYQTKDRRGGIFDAVFTRGDQSKLLTERHDLKNKTLKEISDLIKQELTEGKALGLSHTYANVRINHVINLWGADFDSNGNLEAIYVTDSDSNASIGMKKYFVGVNSAGKVAISAKEIKEDNIGAQVLGLFTLSTGQDIWNQTNLEHHHHHH
B13: PRT-510 (protein)
chain: B12 chain with A14T, K15D, V32K, N34G, T43A, N45D, K47G

This series deals with pooled human IgG (human IgG1,2,3 and 4).
B1 had an Enzyme Activity Endpoint Assay (purified): Fab′2 of 0 ng/µL, an Enzyme Activity Endpoint Assay (purified): Fc of 0 ng/µL, an Enzyme Activity Endpoint Assay (purified): IgG of 1950 ng/µL and an Enzyme Activity Endpoint Assay (purified): scIgG of 0 ng/µL.

In the case of B2, the Enzyme Activity Endpoint Assay (purified): Fab′2 was 488 ng/µL, the Enzyme Activity Endpoint Assay (purified): Fc came out at 318 ng/µL, the Enzyme Activity Endpoint Assay (purified): IgG was determined as 325 ng/µL and the Enzyme Activity Endpoint Assay (purified): scIgG was 124 ng/µL.

B3 had an Enzyme Activity Endpoint Assay (purified): Fab′2 of 61 ng/µL, an Enzyme Activity Endpoint Assay (purified): Fc of 197 ng/µL, an Enzyme Activity Endpoint Assay (purified): IgG of 279 ng/µL and an Enzyme Activity Endpoint Assay (purified): scIgG of 896 ng/µL.

With B4, the Enzyme Activity Endpoint Assay (purified): Fab′2 is 0 ng/µL, the Enzyme Activity Endpoint Assay (purified): Fc is 0 ng/µL, the Enzyme Activity Endpoint Assay (purified): IgG was 0 ng/µL and the Enzyme Activity Endpoint Assay (purified): scIgG stood at 0 ng/µL.

Protein B5 yielded an Enzyme Activity Endpoint Assay (purified): Fab′2 of 1080 ng/µL, an Enzyme Activity Endpoint Assay (purified): Fc of 363 ng/µL, an Enzyme Activity Endpoint Assay (purified): IgG of 0 ng/µL and an Enzyme Activity Endpoint Assay (purified): scIgG of 0 ng/µL.

Protein B6 displayed an Enzyme Activity Endpoint Assay (purified): Fab′2 of 54 ng/µL, an Enzyme Activity Endpoint Assay (purified): Fc of 207 ng/µL, an Enzyme Activity Endpoint Assay (purified): IgG of 362 ng/µL and an Enzyme Activity Endpoint Assay (purified): scIgG of 1020 ng/µL.

The protein B7 gave an Enzyme Activity Endpoint Assay (purified): Fab′2 of 0 ng/µL, an Enzyme Activity Endpoint Assay (purified): Fc of 0 ng/µL, an Enzyme Activity Endpoint Assay (purified): IgG of 1950 ng/µL and an Enzyme Activity Endpoint Assay (purified): scIgG of 0 ng/µL.

The protein B8 gave an Enzyme Activity Endpoint Assay (purified): Fab′2 of 300 ng/µL, an Enzyme Activity Endpoint Assay (purified): Fc of 282 ng/µL, an Enzyme Activity Endpoint Assay (purified): IgG of 227 ng/µL and an Enzyme Activity Endpoint Assay (purified): scIgG of 481 ng/µL.

The protein B9 yielded an Enzyme Activity Endpoint Assay (purified): Fab′2 of 0 ng/µL, an Enzyme Activity Endpoint Assay (purified): Fc of 0 ng/µL, an Enzyme Activity Endpoint Assay (purified): IgG of 0 ng/µL and an Enzyme Activity Endpoint Assay (purified): scIgG of 0 ng/µL.

B10 registered an Enzyme Activity Endpoint Assay (purified): Fab′2 of 0 ng/µL, an Enzyme Activity Endpoint Assay (purified): Fc of 0 ng/µL, an Enzyme Activity Endpoint Assay (purified): IgG of 1400 ng/µL and an Enzyme Activity Endpoint Assay (purified): scIgG of 0 ng/µL.

Take B11: the Enzyme Activity Endpoint Assay (purified): Fab′2 was determined as 0 ng/µL, the Enzyme Activity Endpoint Assay (purified): Fc came out at 0 ng/µL, the Enzyme Activity Endpoint Assay (purified): IgG was 0 ng/µL and the Enzyme Activity Endpoint Assay (purified): scIgG stood at 0 ng/µL.

B12 came in with an Enzyme Activity Endpoint Assay (purified): Fab′2 of 935 ng/µL, an Enzyme Activity Endpoint Assay (purified): Fc of 312 ng/µL, an Enzyme Activity Endpoint Assay (purified): IgG of 62 ng/µL and an Enzyme Activity Endpoint Assay (purified): scIgG of 0 ng/µL.

Regarding B13, the Enzyme Activity Endpoint Assay (purified): Fab′2 is 51 ng/µL, the Enzyme Activity Endpoint Assay (purified): Fc worked out at 29 ng/µL, the Enzyme Activity Endpoint Assay (purified): IgG stood at 0 ng/µL and the Enzyme Activity Endpoint Assay (purified): scIgG was 0 ng/µL.
